Drawing on US20110256153A1 (IMMUNOGEN, published 2011), this text covers binding result and Kd for 3 molecules.

Assay [1] concerns the target T1, hCD37-M45 (human/murine chimera, UniProt P11049 1-281).
T1 construct: stably expressed on 300-19 cells; also called hCD37-M45 variant
T1 chain: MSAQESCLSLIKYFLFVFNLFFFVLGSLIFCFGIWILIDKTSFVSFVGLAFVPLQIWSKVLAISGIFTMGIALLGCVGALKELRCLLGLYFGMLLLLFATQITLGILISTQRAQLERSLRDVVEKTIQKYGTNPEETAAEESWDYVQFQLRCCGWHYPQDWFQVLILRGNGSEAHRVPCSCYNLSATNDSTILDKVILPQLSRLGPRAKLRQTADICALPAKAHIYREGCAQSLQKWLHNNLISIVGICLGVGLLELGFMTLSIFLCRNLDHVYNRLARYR
The assay is described as follows: flow cytometry, 300-19 cells expressing hCD37-M45, 1.5 µg/mL antibody. As for the experimental part: (§1) Binding specificity was tested by flow cytometry using purified antibodies. […] All murine antibodies were incubated for 3 h with either CD37-expressing 300-19 cells or the non-transfected 300-19 cells (1×10⁵ cells per sample) in 100 μL FACS buffer (RPMI-1640 medium supplemented with 2% normal goat serum). Then, the cells were pelleted, washed, and incubated for 1 h with 100 μL of FITC-conjugated goat anti-mouse IgG-antibody (Jackson Laboratory, 6 μg/mL in FACS buffer). The cells were pelleted again, washed with FACS buffer and resuspended in 200 μL of PBS containing 1% formaldehyde. Samples were acquired using a FACSCalibur flow cytometer with the HTS multiwell sampler or a FACS array flow cytometer and analyzed using CellQuest Pro (all from BD Biosciences, San Diego, US).
Binding of various CD37 antibodies to cells expressing human CD37 wildtype and variants was analyzed by flow cytometry using 1.5 μg/mL of each antibody. The isolated antibodies of this invention were compared to commercially available CD37 antibody WR17, as well as the TRU-016 SMIP. […] Likewise, all antibodies tested bound the hCD37-M3 variant (FIG. 18B). In contrast, the isolated antibodies of this invention bound the hCD37-M1 variant, while TRU-016 and WR17 were unable to bind hCD37-M1 variant (FIG. 19A). The CD37-50 and CD37-51 antibodies and TRU-016 were also able to bind the hCD37-M45 variant. […]
(In general: In flow cytometry, cells or beads pass a laser one at a time.)

Assay [2] addresses T2, hCD37-M3 (human/murine chimera, UniProt P11049 1-281).
T2 construct: stably expressed on 300-19 cells; also called hCD37-M3 variant
T2 chain: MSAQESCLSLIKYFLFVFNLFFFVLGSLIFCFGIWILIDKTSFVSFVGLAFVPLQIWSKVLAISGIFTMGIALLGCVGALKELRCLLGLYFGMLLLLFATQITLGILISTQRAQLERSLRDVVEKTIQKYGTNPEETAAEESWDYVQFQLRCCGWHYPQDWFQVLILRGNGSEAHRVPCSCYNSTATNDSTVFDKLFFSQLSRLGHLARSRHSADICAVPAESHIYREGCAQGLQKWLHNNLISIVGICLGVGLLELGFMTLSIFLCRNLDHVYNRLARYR
The assay is described as follows: flow cytometry, 300-19 cells expressing hCD37-M3, 1.5 µg/mL antibody. The method, then:
as §1
(§2) Binding of various CD37 antibodies to cells expressing human CD37 wildtype and variants was analyzed by flow cytometry using 1.5 μg/mL of each antibody. The isolated antibodies of this invention were compared to commercially available CD37 antibody WR17, as well as the TRU-016 SMIP. […] Likewise, all antibodies tested bound the hCD37-M3 variant (FIG. 18B). In contrast, the isolated antibodies of this invention bound the hCD37-M1 variant, while TRU-016 and WR17 were unable to bind hCD37-M1 variant (FIG. 19A). The CD37-50 and CD37-51 antibodies and TRU-016 were also able to bind the hCD37-M45 variant. […] In contrast, the CD37-3, CD37-12, CD37-38, CD37-56 and CD37-57 antibodies require at least one of the AA residues in the hCD37-M45 variant that were changed to the corresponding murine AA residues for binding to the CD37 antigen.

In assay [3] the target is T3, human CD37 (human, UniProt P11049 1-278).
T3 construct: Tetraspanin antigen; Expressed on 300-19 cells transfected with pSRa-CD37 (entire CDS) or endogenous on WSU-DLCL-2, BJAB and Ramos lymphoma cells; also called CD37 antigen; human CD37 wildtype
T3 sequence: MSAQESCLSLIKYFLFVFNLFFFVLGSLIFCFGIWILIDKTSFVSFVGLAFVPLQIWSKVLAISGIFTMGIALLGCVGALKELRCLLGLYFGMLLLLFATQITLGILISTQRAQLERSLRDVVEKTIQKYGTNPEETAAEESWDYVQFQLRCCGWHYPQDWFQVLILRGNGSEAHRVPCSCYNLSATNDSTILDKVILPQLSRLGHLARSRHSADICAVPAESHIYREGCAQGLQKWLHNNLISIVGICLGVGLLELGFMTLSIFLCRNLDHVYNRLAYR
As to the kind of experiment: flow cytometry titration on BJAB cells; apparent Kd. The gist of the method: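 BJAB cells were incubated 3 h with titrated antibody in RPMI-1640 containing 2% goat serum, then 1 h with FITC anti-mouse or anti-human IgG, fixed in 1% formaldehyde and read by flow cytometry. Apparent Kd was derived by non-linear regression of the dose-response curves.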

The target of assay [4] is T4, hCD37-M1 (human/murine chimera, UniProt P11049 1-281).
T4 construct: stably expressed on 300-19 cells; also called hCD37-M1 variant
T4 chain: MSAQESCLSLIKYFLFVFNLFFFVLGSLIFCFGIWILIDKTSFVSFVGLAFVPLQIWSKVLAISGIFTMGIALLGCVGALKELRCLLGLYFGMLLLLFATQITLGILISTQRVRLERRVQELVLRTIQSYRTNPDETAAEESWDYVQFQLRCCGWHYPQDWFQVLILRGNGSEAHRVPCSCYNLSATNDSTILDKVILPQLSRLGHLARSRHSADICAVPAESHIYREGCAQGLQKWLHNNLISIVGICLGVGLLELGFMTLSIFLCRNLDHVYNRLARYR
The assay is described as follows: flow cytometry, 300-19 cells expressing hCD37-M1, 1.5 µg/mL antibody. The method, then:
as §1, §2

The target of assay [5] is T5, macaque CD37 (macaque, UniProt P11049 1-277 (human entry)).
T5 construct: Expressed on 300-19 cells transfected with pSRa-CD37mac (300-19/CD37mac cells); also called macaca CD37; macaque derived CD37 antigen
T5 chain: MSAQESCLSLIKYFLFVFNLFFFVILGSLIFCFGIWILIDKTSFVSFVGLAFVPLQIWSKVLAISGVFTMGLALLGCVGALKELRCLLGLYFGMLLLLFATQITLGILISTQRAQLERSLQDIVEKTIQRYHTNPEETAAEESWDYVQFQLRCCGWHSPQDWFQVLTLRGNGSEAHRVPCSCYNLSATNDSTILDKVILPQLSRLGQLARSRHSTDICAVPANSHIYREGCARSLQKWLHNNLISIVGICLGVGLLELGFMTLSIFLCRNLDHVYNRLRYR
As to the kind of experiment: flow cytometry, 300-19/CD37mac cells. As for the experimental part:
as §1
The murine antibodies muCD37-3, muCD37-12, muCD37-38, […], muCD37-51, muCD37-56 and muCD37-57 were assayed for their ability to bind to 300-19/CD37mac cells expressing macaque CD37. Flow cytometry binding assays were carried out using secondary FITC-conjugated goat-anti-murine or goat-anti-human antibodies, analyzed as described in Example 2. Binding was compared to the previously described anti-CD37 antibody WR17 and the anti-CD37 SMIP TRU-016. […] In contrast, muCD37-3, muCD37-12, the previously described anti-CD37 antibody WR17 and the anti-CD37 SMIP TRU-016 are unable to bind the macaque derived CD37 antigen.

Assay [6] has as its target T3, human CD37. As to the kind of experiment: flow cytometry titration on Ramos cells; apparent Kd. The method, then:
as §1
The chimeric antibodies chCD37-3 and chCD37-12 were assayed for their binding affinity to Ramos cells in comparison to their murine counterparts. Flow cytometry binding assays using Ramos cells and muCD37-3, chCD37-3, muCD37-12 and chCD37-12 antibodies were carried out and analyzed as described in Example 2 using secondary FITC-conjugated goat-anti-murine and -anti-human antibodies. FIG. 9A depicts the dose-response curves generated by non-linear regression for each antibody. The value for the apparent dissociation constant (Kd) of each antibody was calculated using GraphPad Prism v4 (GraphPad software, San Diego, Calif.).

Assay [7] concerns the target T1, hCD37-M45. As to the kind of experiment: flow cytometry, 300-19 cells expressing hCD37-M45. As for the experimental part: as §1, §2
Assay [8] addresses T3, human CD37. The assay is described as follows: flow cytometry titration on WSU-DLCL-2 cells; EC50 taken as apparent Kd. The method, then:
as §1
To verify that the antibodies can also bind to endogenously expressed CD37, binding experiments were performed with CD37-positive WSU-DLCL-2 lymphoma cells and the muCD37-3, muCD37-12, muCD37-8, muCD37-10 or muCD37-14 antibodies. WSU-DLCL-2 cells were incubated with varying concentrations of murine antibodies and processed as described above for flow cytometry analysis. Data analysis was performed using CellQuest Pro (BD Biosciences, San Diego, US) and for each sample the mean fluorescence intensity for FL1 (MFI) was exported and plotted against the antibody concentration in a semi-log plot (FIG. 3). […]

B1: muCD37-50 (antibody, mouse IgG2a, kappa, V domains shown)
VH: DVQLQESGPDLLKPSQSLSLTCTVTGYSITSGFAWHWIRQFPGNKLEWMGYILYSGSTVYSPSLKSRISITRDTSKNHFFLQLNSVTTEDTATYYCARGYYGYGAWFAYWGQGTLVTVSA
VL: QIVLTQSPAIMSASPGEKVTMTCSATSSVTYMHWYQQKSGTSPKRWIYDTSKLPYGVPGRFSGSGSGTSYSLTISSMEAEDAATYYCQQWSDNPPTFGSGTKLEIKR
notes: Murine hybridoma antibody
For B1, the binding result in assay [1], in assay [2] and in assay [4] was “binds” each time. Also, in assay [3], the Kd amounted to 0.6 nM.

B2: muCD37-51 (antibody, mouse IgG2a, kappa, V domains shown)
VH: DVQLQESGPDLLKPSQSLSLTCTVTGYSISSGFAWHWIRQFPGNKLEWMGYIHYSGSTNYSPSLKSRISITRDSSKNQFFLQLNSVTTEDTATYYCARGYYGFGAWFVYWGQGTLVTVSA
VL: QIVLTQSPAIMSASPGEKVTMTCSATSSVTYMHWYQQKSGTSPKRWIYDTSKLASGVPARFSGSGSGTSYSLTISNMEAEDAATYYCQQWSSNPPTFGSGTKLEIKR
notes: Murine hybridoma antibody
On to B2, for which the binding result in assay [1], in assay [2], in assay [5] and in assay [4] was “binds” in each case. In addition, the Kd in assay [3] came out at 0.6 nM.

B3: muCD37-12 (antibody, mouse IgG2a, kappa)
heavy: QIQLVQSGPELKKPGETVKISCKASGYTFTKYGMNWVKQAQGKGLKWMGWINTNTGESRNAEEFKGRFAFSLETSASTAYLQINNLKYEDTATYFCGRGTVVADWGQGTTLTVSSAKTTAPSVYPLAPVCGDTTGSSVTLGCLVKGYFPEPVTLTWNSGSLSSGVHTFPAVLQSDLYTLSSSVTVTSSTWPSQSITCNVAHPASSTKVDKKIEPRGPTIKPCPPCKCPAPNLLGGPSVFIFPPKIKDVLMISLSPIVTCVVVDVSEDDPDVQISWFVNNVEVHTAQTQTHREDYNSTLRVVSALPIQHQDWMSGKEFKCKVNNKDLPAPIERTISKPKGSVRAPQVYVLPPPEEEMTKKQVTLTCMVTDFMPEDIYVEWTNNGKTELNYKNTEPVLDSDGSYFMYSKLRVEKKNWVERNSYSCSVVHEGLHNHHTTKSFSRTPGK
light: DIVLTQSPASLAVSLGQRATISCRASQSVSTSSYSYLYWFQQKPGQPPKLLIKYASNLASGVPARFSGSGSGTDFTLNIHPVEEEDTATYYCQHSWEIPYTFGGGTKLEIKRADAAPTVSIFPPSSEQLTSGGASVVCFLNNFYPKDINVKWKIDGSERQNGVLNSWTDQDSKDSTYSMSSTLTLTKDEYERHNSYTCEATHKTSTSPIVKSFNRNEC
notes: Murine hybridoma antibody
For B3, the binding result is “binds” in assay [2], “no binding” in assay [5], “binds” in assay [4] and “no binding (tested: 1.5 µg/mL)” in assay [7]. For the same molecule, the Kd stood at 0.8 nM in assay [6] and 1.1 nM in assay [8].
